Reference: US20240159758A1 (OPKO DIAGNOSTICS, published 2024)

Tests used:
[1] = target: T1, Free prostate specific antigen (fPSA) (Homo sapiens (Human), UniProt P07288 25-261); assay: sandwich (noncompetitive) DELFIA immunoassay, capture probe
T1 construct: also called Free PSA
Description: (§1) The concentrations of tPSA and fPSA are determined with commercial assays approved for use in human diagnostics by the FDA (Roche™ Cobas® instrument and Elecsys® assays). The concentrations of iPSA and hK2 are determined using a test developed to run on the PerkinElmer® AutoDELFIA® instrument.
(§2) The presence of iPSA and hK2 are detected by a sandwich (noncompetitive) immunoassay. The iPSA assay employs two distinct mouse monoclonal antibody products. The capture probe is a biotinylated, recombinant His₆-Cys-tagged Fab fragment of the monoclonal antibody 5A10 with specificity for fPSA (of which iPSA is a component). The tracer is a Europium-labelled monoclonal antibody 4D4, with specificity to iPSA and complexed PSA (PSA-ACT). In combination, the reagents are specific for iPSA. The hK2 assay employs five distinct mouse monoclonal antibody products. The capture probe is a biotinylated, F(ab)₂ fragment of 6H10 monoclonal antibody with specificity for hK2 and tPSA. […]
(§3) The signals obtained from the detection of iPSA and hK2 in the immunoassays are then compared to the signals obtained from the detection of a set of standards (e.g. the calibrator solutions) using the same iPSA and hK2 antibodies. […] The reporting range is defined by the limit of quantification (LoQ) at the low end and the highest calibrator at the high end. For the iPSA and hK2 assays, the LoQ was determined using CLSI EP-17A.

[2] = target: T2, Intact prostate specific antigen (iPSA) (Homo sapiens (Human), UniProt P07288 25-261); assay: as above
T2 construct: also called Intact PSA
Description: as §1, §2, §3

T2 sequence (P07288 25-261 limits assumed): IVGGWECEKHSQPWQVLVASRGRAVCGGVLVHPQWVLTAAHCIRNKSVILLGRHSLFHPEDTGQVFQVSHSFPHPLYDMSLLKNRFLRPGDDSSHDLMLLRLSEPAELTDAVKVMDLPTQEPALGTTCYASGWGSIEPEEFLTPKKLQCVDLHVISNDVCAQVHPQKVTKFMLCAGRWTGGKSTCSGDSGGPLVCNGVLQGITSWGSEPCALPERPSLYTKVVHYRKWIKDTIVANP
T1 sequence (P07288 25-261 limits assumed): as above

B1: biotinylated, recombinant His6-Cys-tagged Fab fragment of the monoclonal antibody 5A10 (Fab, V domains shown)
VH: EVQLVESGPGILQPSQTLSLTCSFSGFSLSTTGMGVSWIRQPSGKGLEWLAHLYWDEDKRYNPSLKSRLTISEDSSRNQVFLKITSVGPADSATYYCARKGYYGYFDYWGQGTALTVSS
VL: DIVMTQSQKFMSTSVGDRVSVTCKASQNVNTDVAWYQQKPGQSPKALIFSTSYRSSGVPDRFTGSGSGTDFTLTITNVQSEDLAEYFCQQYSNYPLTFGAGTKVDLN
modifications: biotinylated (site not stated)
notes: Mouse monoclonal origin; also called Fab 5A10; 5A10 Fab
Q: Does B1 bind [1]?
A: binds

Q: Does B1 bind [2]?
A: binds
